According to patent publication US20190367628A1 (Novartis, published 2019):

How the values were obtained:
Human BCMA-His-APP-Avi = biological target: T1, Human BCMA-His-APP-Avi (human, biotinylated (captured on streptavidin plate; site not stated)); assay: monoclonal phage ELISA, anti-M13-HRP, Abs450 against fold dilution of phage
T1 construct: also called His-APP-Avi-tagged human BCMA
T1 chain: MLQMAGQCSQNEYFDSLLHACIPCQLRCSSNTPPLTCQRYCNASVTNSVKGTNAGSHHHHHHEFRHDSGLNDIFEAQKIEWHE

[1] = biological target: T2, cynomolgus BCMA (antigen of the surface plasmon resonance measurement of PI-61) (cynomolgus, UniProt A0A2K5UD97 1-53); assay: surface plasmon resonance
T2 construct: Construct used in the SPR experiment is not described; also called cyno BCMA; not shown: The carrier or tag of the soluble cyno BCMA used in SPR
T2 sequence (A0A2K5UD97 entry or part of it limits assumed): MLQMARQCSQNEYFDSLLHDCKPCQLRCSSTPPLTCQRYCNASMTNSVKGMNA

[2] = biological target: T3, human BCMA (antigen of the surface plasmon resonance measurement of PI-61) (human, UniProt Q02223 1-54, limits assumed); assay: surface plasmon resonance
T3 construct: Construct used in the SPR experiment is not described
T3 sequence (looked up): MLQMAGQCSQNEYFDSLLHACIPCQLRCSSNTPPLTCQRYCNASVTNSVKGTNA

Cyno BCMA APP-Avi [3] = biological target: T4, Cyno BCMA APP-Avi (cynomolgus, biotinylated (site not stated)); assay: flow cytometry of single yeast clone displaying the scFv, labelled with 900 pM biotinylated cyno BCMA, streptavidin/neutravidin-DyLight 633 detection
T4 construct: It was used as soluble biotinylated antigen; also called biotinylated cyno BCMA
T4 sequence (chain, as listed by the source limits assumed): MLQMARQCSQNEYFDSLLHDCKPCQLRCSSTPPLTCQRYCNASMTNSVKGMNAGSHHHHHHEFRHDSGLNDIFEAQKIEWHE
Procedure: (§1) For the fourth round of screening, yeast from the third round output were pelleted, washed, and resuspended in 200 mL SD-ura broth with 1% raffinose, 2% galactose, and incubated for 22 hours at 20° C. to induce expression. […] The first sample was incubated with human BCMA for 45 min at room temperature, pelleted, washed twice with PBSF, and then resuspended in 1 mL PBSF (PBS with 0.1% BSA). The second sample was incubated with human BCMA for 45 minutes at room temperature. Both samples were pelleted, washed twice with PBSF, and resuspended in 200 uL of PBSF+a 1:30 dilution of rabbit anti-cMyc-FITC (Abcam)+a 1:100 dilution of neutravidin-dylight 633 (Invitrogen). Samples were incubated at 4 C for 30 min, pelleted, washed twice with PBSF, resuspended in 3 mL PBSF, filtered through 40 um filters, then sorted using flow cytometry on a FACS Aria cell sorter (Becton Dickinson Biosciences, San Jose, Calif.). Approximately 5×10⁵ yeast were isolated and resuspended in 4 mL SD-ura broth with 2% glucose and grown overnight at 30° C.
(§2) Each sample plate was used to create three test plates for flow cytometric analysis. […] Labeling was essentially as above for sorting, except using 1:200 each streptavidin-dylight 633 (Invitrogen) and neutravidin-dylight 633 (Invitrogen) in PBSF as secondary reagent and excluding any anti-cMyc antibody. The test plates were analyzed on a Cytoflex flow cytometer (Beckman Coulter, Brea, Calif.)

Cyno BCMA APP-Avi [4] = biological target: T4, Cyno BCMA APP-Avi; assay: flow cytometry of single yeast clone displaying the scFv, labelled with 20 nM biotinylated cyno BCMA, streptavidin/neutravidin-DyLight 633 detection
Procedure: as §1, §2

recombinant human BCMA = biological target: T5, recombinant human BCMA (human, UniProt Q02223 1-54, limits assumed); assay: solution equilibrium titration (SET, MSD); apparent KD; bispecific at a fixed concentration, BCMA titrated in solution
T5 construct: The SET method says only 'recombinant human BCMA'; also called hBCMA; TNFRSF17
T5 sequence (looked up): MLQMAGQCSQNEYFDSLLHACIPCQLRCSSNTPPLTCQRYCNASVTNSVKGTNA

[5] = biological target: T6, recombinant cynomolgus monkey BCMA (cynomolgus monkey, UniProt A0A2K5UD97 1-53); assay: as above
T6 construct: The SET method says only 'recombinant cynomolgus monkey BCMA'; also called Cyno BCMA; cynoBCMA

B1: PI-61 (monoclonal phage clone) (other)
VH: QVQLQESGGGVVQPGRSLRLSCAASGFTFSSYGMHWVRQAPGKGLEWVAVISYDGSNKYYADSVKGRFTISRDNSKNTLYLQMNSLRAEDTAVYYCGGSGYALHDDYYGLDVWGQGTLVTVSS
VL: QSALTQPASVSGSPGQSITISCTGTSSDVGGYNYVSWYQQHPGKAPKLMIYDVSNRPSGVSNRFSGSKSGNTASLTISGLQAEDEADYYCSSYTSSSTLYVFGSGTKVTVL
B1: binds (Human BCMA-His-APP-Avi).

B2: PI-61 antibody (as measured by surface plasmon resonance) (antibody, V domains shown)
VH: QVQLQESGGGVVQPGRSLRLSCAASGFTFSSYGMHWVRQAPGKGLEWVAVISYDGSNKYYADSVKGRFTISRDNSKNTLYLQMNSLRAEDTAVYYCGGSGYALHDDYYGLDVWGQGTLVTVSS
VL: QSALTQPASVSGSPGQSITISCTGTSSDVGGYNYVSWYQQHPGKAPKLMIYDVSNRPSGVSNRFSGSKSGNTASLTISGLQAEDEADYYCSSYTSSSTLYVFGSGTKVTVL
notes: also called parental clone
B2 showed a Kd [1] of about 240 nM and a Kd [2] of about 34 nM.

B3: H2/L2-36 scFv (scFv)
scFv: QAQLQSSGGGVVQPGRSLRLSCAASGFTFSSYGMHWVRQAPGKGLEWVAVISYKGSNKYYADSVKGRFTISRDNSKNTLYLQMNSLRAEDTAVYYCGGSGYALHDDYYGLDVWGQGTLVTVSSSGGGGSGGGGSGGGGSGGGGSQSALTQPASVSGSPGQSITISCTGTSSDVGGYNYVSWYQQHPGKAPKLMIYEVSNRLRGVSNRFSGSKFGNTASLTISGLQAEDEADYYCSSYTSSSTLYVFGSGTKVTVL
In the case of B3, the MFI (Cyno BCMA APP-Avi [3]) is reported as 5590 MFI and the MFI (Cyno BCMA APP-Avi [4]) is reported as 6430 MFI.

B4: H2/L2-18 scFv (scFv)
scFv: QAQLQGSGGGVVQPGRSLRLSCAASGFTFSSYGMHWVRQAPGKGLEWVAVISYKGSHKYYADSVKGRFTISRDNSKNTLYLQMNSLRAEDTAVYYCGGSGYALHDDYYGLDVWGQGTLVTVSSSGGGGSGGGGSGGGGSGGGGSQSALTQPASVSGSPGQSITISCTGTSSDVGGYNYVSWYQQHPGKAPKLMIYDVSNRPWGVSNRFSGSKFGNTASLTISGLQAEDEADYYCSSYTSSSTLYVFGSGTKVTVL
In the case of B4, the MFI (Cyno BCMA APP-Avi [3]) is reported as 7180 MFI and the MFI (Cyno BCMA APP-Avi [4]) is reported as 19900 MFI.

B5: H2/L2-20 scFv (scFv)
scFv: QAQLQSSGGGVVQPGRSLRLSCAASGFTVSSYGMHWVRQAPGKGLEWVAVISYTGSNKYYADSVKGRFTISRDNSKNTLYLQMNSLRAEDTAVYYCGGSGYALHDDYYGLDVWGQGTLVTVSSSGGGGSGGGGSGGGGSGGGGSQSALTQPASVSGSPGQSITISCTGTSSDVGGYNYVSWYQQHPGKAPKLMIYDVSNRLRGVSNRFSGSKFGNTASLTISGLQAEDEADYYCSSYTSSSALYVFGSGTKVTVL
Binder B5 has an MFI (Cyno BCMA APP-Avi [3]) of 7030 MFI and an MFI (Cyno BCMA APP-Avi [4]) of 20700 MFI.

B6: H2/L2-34 scFv (scFv)
scFv: QVQLQDSEGGVVQPGRSLRLSCAASGFTFSSYGMHWVRQAPGKGLEWVAVISYTGTKKYYADSVKGRFTISRDNSKNTLYLQMNSLRAEDTAVYYCGGSGYALHDDYYGLDVWGQGTLVTVSSSGGGGSGGGGSGGGGSGGGGSQSALTQPASVSGSPGQSITISCTGTSSDVGGYNYVSWYQQHPGKAPKLMIYDVSNRPWGVSNRFSGSKFGNTASLTISGLQAEDEADYYCSSYTSSSALYVFGSGTKVTVM
B6 was tested, and the MFI (Cyno BCMA APP-Avi [3]) was 6050 MFI and the MFI (Cyno BCMA APP-Avi [4]) was 10400 MFI.

B7: H2/L2-47 scFv (scFv)
scFv: QVQLQSSEGGVVQPGRSLRLSCAASGFTFSSYGMHWVRQAPGKGLEWVAVISYKGSNKYYADSVKGRFTISRDNSKNTLYLQMNSLRAEDTAVYYCGGSGYALHDDYYGLDVWGQGTLVTVSSSGGGGSGGGGSGGGGSGGGGSQSALTQPASVSGSPGQSITISCTGTSSDVGGYNYVSWYQQHPGKAPKLMIYDVSNRPWGVSNRFSGSKFGNTASLTISGLQAEDEADYYCSSYTSSSTLYVFGSGTKVTVL
B7 gave an MFI (Cyno BCMA APP-Avi [3]) of 5930 MFI and an MFI (Cyno BCMA APP-Avi [4]) of 14200 MFI.

B8: H2/L2-68 scFv (scFv)
scFv: QAQLQSSEGGVVQPGRSLRLSCAASGFTFSSYGMHWVRQAPGKGLEWVAVISYRGFNKYYADSVKGRFTISRDNSKNTLYLQMNSLRAEDTAVYYCGGSGYALHDDYYGQDVWGQGTLVTVSSSGGGGSGGGGSGGGGSGGGGSQSALTQPASVSGSPGQSITISCTGTSSDVGGYNYVSWYQQHPGKAPKLMIYDVSNRLSGVSNRFSGSKFGNTASLTISGLQAEDEADYYCSSYTSSSTLYVFGSGTKVTVL
Binder B8 has an MFI (Cyno BCMA APP-Avi [3]) of 7380 MFI and an MFI (Cyno BCMA APP-Avi [4]) of 16200 MFI.

B9: H2/L2-80 scFv (scFv)
scFv: QVQLQSSGGGVVQPGRSLRLSCAASGFTFSSYGMHWVRQAPGKGLEWVAVISYTGSNKYYADSVKGRFTISRDNSKNTLYLQMNSLRAEDTAVYYCGGSGYALHDDYYGLDVWGQGTLVTVSSSGGGGSGGGGSGGGGSGGGGSQSALTQPASVSGSPGQSITISCTGTSSDVGGYNYVSWYQQHPGKAPKLMIYDVSNRAWGVSNRFSGSKFGNTASLTISGLQAEDEADYYCSSYTSSSALYVFGSGTKVTVL
In the case of B9, the MFI (Cyno BCMA APP-Avi [3]) is reported as 6540 MFI and the MFI (Cyno BCMA APP-Avi [4]) is reported as 17900 MFI.

B10: H2/L2-83 scFv (scFv)
scFv: QAQLQGSGGGVVQPGRSLRLSCAASGFTFSSYGMHWVRQAPGKGLEWVAVISYKGSNKYYADSVKGRFTISRDNSKNTLYLQMNSLRAEDTAVYYCGGSGYALHDDYYGLDVWGQGTLVTVSSSGGGGSGGGGSGGGGSGGGGSQSALTQPASVSGSPGQSITISCTGTSSDVGGYNYVSWYQQHPGKAPKLMIYEVSNRLRGVSNRFSGSKFGNTASLTISGLQAEDEADYYCSSYTSSSTLYVFGSGTKVTVL
Work on B10 yielded an MFI (Cyno BCMA APP-Avi [3]) of 4880 MFI and an MFI (Cyno BCMA APP-Avi [4]) of 10700 MFI.

B11: H2/L2-88 scFv (scFv)
scFv: QVQLQSSEGGVVQPGRSLRLSCAASGFTFSSYGMHWVRQAPGKGLEWVAVISYKGSNKYYADSVKGRFTISRDNSKNTLYLQMNSLRAEDTAVYYCGGSGYALHDDYYGLDVWGQGTLVTVSSSGGGGSGGGGSGGGGSGGGGSQSALTQPASVSGSPGQSITISCTGTSSDVGGYNYVSWYQQHPGKAPKLMIYEVSNRLRGVSNRFSGSKFGNTASLTISGLQAEDEADYYCSSYTSSSALYVFGSGTKVTVL
B11 gave an MFI (Cyno BCMA APP-Avi [3]) of 6440 MFI and an MFI (Cyno BCMA APP-Avi [4]) of 4480 MFI.

B12: BCMA-CD3 bispecific antibody AB3 (bispecific antibody)
chain 1: not shown
chain 2: QSALTQPASVSGSPGQSITISCTGTSSDVGGYNYVSWYQQHPGKAPKLMIYDVSNRLRGVSNRFSGSKSGNTASLTISGLQAEDEADYYCSSYTSSSALYVFGSGTKVTVLGQPKAAPSVTLFPPSSEELQANKATLVCLISDFYPGAVTVAWKADSSPVKAGVETTTPSKQSNNKYAASSYLSLTPEQWKSHRSYSCQVTHEGSTVEKTVAPTECS
chain 3: not shown
For B12, the Kd (recombinant human BCMA) was 0.0615 nM and the Kd [5] was 0.105 nM.
